The text below walks through data of paper PMC2713385 (Journal of molecular biology, 2009).

The target of series [1] is phage HS1 gp26-like tail needle (prophage HS1 of E. coli strain HS). In words: AUC.
The target is the same in series [2]. In words: SDS-PAGE.
Series [3] deals with bacteriophage HK620 gp26-like tail needle (bacteriophage HK620). In words: AUC.
The target is the same in series [4]. In words: SDS-PAGE.
The target of series [5] is bacteriophage Sf6 gp26-like tail needle (bacteriophage Sf6). Put plainly: AUC.
For series [6] the target is unchanged. Put plainly: SDS-PAGE.
The series “AUC” deals with the molecule itself. Put plainly: AUC.

Broadly, the stoichiometry N is the number of molecules, sites or subunits per partner or assembly. With “phage HS1 gp26-like tail needle (natural protein)”, the stoichiometry N in series [1] and in series [2] was 3 each time.
On to “bacteriophage HK620 gp26-like tail needle (natural protein)”, for which the stoichiometry N in series [3] and in series [4] was 3 in each case.
Regarding “bacteriophage Sf6 gp26-like tail needle (natural protein)”, the stoichiometry N in series [5] and in series [6] was 3 throughout.

B1: bacteriophage P22 tail needle gp26 (natural protein, UniProt P35837 1-233, looked up)
chain: MADPSLNNPVVIQATRLDASILPRNVFSKSYLLYVIAQGTDVGAIAGKANEAGQGAYDAQVKNDEQDVELADHEARIKQLRIDVDDHESRITANTKAITALNVRVTTAEGEIASLQTNVSALDGRVTTAENNISALQADYVSKTATTSQSLASPLNVTTSYSVGGKKVLGARQTGWTAATGTANKGVFDADLTFAVSDTYTQSEIQAIANALITERRRTKALEDALRAHGLID
Consider B1, for which the “stoichiometry N” value in “AUC” stood at 3.
